Biological target: S. cerevisiae translation elongation factor 1A (eEF1A), TEF1-encoded, purified from a ΔEFM4 strain (S. cerevisiae) (UniProt P02994)
UniProt P02994, sequence (P02994 whole entry, stated change not applied): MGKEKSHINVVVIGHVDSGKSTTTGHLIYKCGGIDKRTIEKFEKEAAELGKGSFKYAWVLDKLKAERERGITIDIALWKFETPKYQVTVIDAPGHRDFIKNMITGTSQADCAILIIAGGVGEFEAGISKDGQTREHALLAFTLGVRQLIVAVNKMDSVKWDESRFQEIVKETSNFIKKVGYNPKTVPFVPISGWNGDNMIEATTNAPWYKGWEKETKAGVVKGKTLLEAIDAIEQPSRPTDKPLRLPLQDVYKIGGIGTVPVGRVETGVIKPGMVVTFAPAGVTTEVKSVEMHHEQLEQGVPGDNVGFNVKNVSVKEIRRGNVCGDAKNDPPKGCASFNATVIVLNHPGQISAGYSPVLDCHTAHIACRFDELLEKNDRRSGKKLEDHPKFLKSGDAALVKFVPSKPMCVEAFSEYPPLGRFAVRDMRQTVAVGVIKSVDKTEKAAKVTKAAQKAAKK

in vitro methylation of eEF1A K316 (Efm4 3 μM, eEF1A 2 μM, AdoMet, 30 min, 30 °C; LC-MS/MS): < 20%
B1: Efm4 F210A/F212A double mutant (enzyme)
chain: FRRNPQDTGDCWFSDSDAEQKMIDFLVDNIGAYRISENASVVDLGTGNGHMLFELHQTEFQGKLVGIDYSEESVKLASNIAEATGVDNFISFQQADIFSGDWKPGKYDIVLDKGTLDAISLSGMKINGKLDVVDVYAGVVERILKKDGIFLITSCNFTQDELVKIIETDNLKMWKTIKYPVAQAGGVQGATICSVAFVKQN
